Measured values taken from the RNAGym collection of RNA variant scans (doi:10.7554/elife.80360).

B1: Hairpin Ribozyme (parent)
chain: GUCCUCUUUCACGUGCGCGUGAAAGAGAGAAGUGAACCAGAGAAACACACGUUGUGGUAUAUUACCUGGUA

Variants of: B1
Assay: self-cleavage, relative activity (ratio to wild type); higher = more cleavage; co-transcriptional

Q: Which self-cleavage does the source give for GUCCUCUUUCACGUGCGCGUGAAAGAGAGAAGUGAAUCAGACAAACACACGUUGUGGUAUAUUACCUGGUA [C37U G42C] here?
A: 0.226

Q: Which self-cleavage does the source give for GUCCUCUUUCACGUGCGCGUGAAAGAGAGAAGUGAAUCAGAGAAACACACGUUCUGGUAUAUUACCUGGUA [C37U G54C] here?
A: 0.338

Q: Which self-cleavage does the source give for GUCCUCUUUCACGUGCGCGUGAAAGAGAGAAGUGAAUCAGAGAAACACACGUUGUCGUAUAUUACCUGGUA [C37U G56C] here?
A: 0.198

Q: With GUCCUCUUUCACGUGCGCGUGAAAGAGAGAAGUGAAUCAGAGAAACACACGUUGUUGUAUAUUACCUGGUA [C37U G56U] as the variant, how does the self-cleavage read?
A: 0.13

Q: For GUCCUCUUUCACGUGCGCGUGAAAGAGAGAAGUGAAUCAGAGAAACACACGUUGUGAUAUAUUACCUGGUA [C37U G57A], which self-cleavage is on record?
A: 0.169

Q: With GUCCUCUUUCACGUGCGCGUGAAAGAGAGAAGUGAAUCAGAGAAACACACGUUGUGGUAUAUUACCUGAUA [C37U G69A] as the variant, how does the self-cleavage read?
A: 0.46

Q: Which self-cleavage does the source give for GUCCUCUUUCACGUGCGCGUGAAAGAGAGAAGUGAAUCAGAGAAACACACGUUGUGGUAUAUUACCUGUUA [C37U G69U] here?
A: 0.438

Q: For GUCCUCUUUCACGUGCGCGUGAAAGAGAGAAGUGAAUCAGAGAAACACACGUUGAGGUAUAUUACCUGGUA [C37U U55A], which self-cleavage is on record?
A: 0.143

Q: With GUCCUCUUUCACGUGCGCGUGAAAGAGAGAAGUGAAUCAGAGAAACACACGUUGCGGUAUAUUACCUGGUA [C37U U55C] as the variant, how does the self-cleavage read?
A: 0.172

Q: Which self-cleavage does the source give for GUCCUCUUUCACGUGCGCGUGAAAGAGAGAAGUGAAUCAGAGAAACACACGUUGGGGUAUAUUACCUGGUA [C37U U55G] here?
A: 0.159

Q: For GUCCUCUUUCACGUGCGCGUGAAAGAGAGAAGUGAAUCAGAGAAACACACGUUGUGGCAUAUUACCUGGUA [C37U U58C], which self-cleavage is on record?
A: 0.743

Q: Which self-cleavage does the source give for GUCCUCUUUCACGUGCGCGUGAAAGAGAGAAGUGAAUCAGAGAAACACACGUUGUGGUAAAUUACCUGGUA [C37U U60A] here?
A: 0.352

Q: For GUCCUCUUUCACGUGCGCGUGAAAGAGAGAAGUGAAUCAGAGAAACACACGUUGUGGUACAUUACCUGGUA [C37U U60C], which self-cleavage is on record?
A: 0.645

Q: Which self-cleavage does the source give for GUCCUCUUUCACGUGCGCGUGAAAGAGAGAAGUGAAUCAGAGAAACACACGUUGUGGUAGAUUACCUGGUA [C37U U60G] here?
A: 0.451

Q: With GUCCUCUUUCACGUGCGCGUGAAAGAGAGAAGUGAAUCAGAGAAACACACGUUGUGGUAUAAUACCUGGUA [C37U U62A] as the variant, how does the self-cleavage read?
A: 0.165

Q: Which self-cleavage does the source give for GUCCUCUUUCACGUGCGCGUGAAAGAGAGAAGUGAAUCAGAGAAACACACGUUGUGGUAUAGUACCUGGUA [C37U U62G] here?
A: 0.166

Q: For GUCCUCUUUCACGUGCGCGUGAAAGAGAGAAGUGAAUCAGAGAAACACACGUUGUGGUAUAUUACCAGGUA [C37U U67A], which self-cleavage is on record?
A: 0.175

Q: With GUCCUCUUUCACGUGCGCGUGAAAGAGAGAAGUGAAUCAGAGAAACACACGUUGUGGUAUAUUACCUGGAA [C37U U70A] as the variant, how does the self-cleavage read?
A: 0.544

Q: For GUCCUCUUUCACGUGCGCGUGAAAGAGAGAAGUGAAUCAGAGAAACACACGUUGUGGUAUAUUACCUGGCA [C37U U70C], which self-cleavage is on record?
A: 0.603

Q: With GUCCUCUUUCACGUGCGCGUGAAAGAGAGAAGUGAACAAGAGUAACACACGUUGUGGUAUAUUACCUGGUA [C38A A43U] as the variant, how does the self-cleavage read?
A: 0.152

Q: Which self-cleavage does the source give for GUCCUCUUUCACGUGCGCGUGAAAGAGAGAAGUGAACAAGAGACACACACGUUGUGGUAUAUUACCUGGUA [C38A A44C] here?
A: 0.108

Q: Which self-cleavage does the source give for GUCCUCUUUCACGUGCGCGUGAAAGAGAGAAGUGAACAAGAGAAACACACGUUGUGGUCUAUUACCUGGUA [C38A A59C] here?
A: 0.103

Q: With GUCCUCUUUCACGUGCGCGUGAAAGAGAGAAGUGAACAAGAGAAACACACGUUGUGGUAUUUUACCUGGUA [C38A A61U] as the variant, how does the self-cleavage read?
A: 0.064

Q: With GUCCUCUUUCACGUGCGCGUGAAAGAGAGAAGUGAACAAGAGAAACACACGUUGUGGUAUAUUACCUGGUU [C38A A71U] as the variant, how does the self-cleavage read?
A: 0.129

Q: For GUCCUCUUUCACGUGCGCGUGAAAGAGAGAAGUGAACAAGAGAAAGACACGUUGUGGUAUAUUACCUGGUA [C38A C46G], which self-cleavage is on record?
A: 0.133

Q: Which self-cleavage does the source give for GUCCUCUUUCACGUGCGCGUGAAAGAGAGAAGUGAACAAGAGAAACAUACGUUGUGGUAUAUUACCUGGUA [C38A C48U] here?
A: 0.135

Q: Which self-cleavage does the source give for GUCCUCUUUCACGUGCGCGUGAAAGAGAGAAGUGAACAAGAGAAACACAGGUUGUGGUAUAUUACCUGGUA [C38A C50G] here?
A: 0.089

Q: With GUCCUCUUUCACGUGCGCGUGAAAGAGAGAAGUGAACAAGAGAAACACACGUUGUGGUAUAUUAGCUGGUA [C38A C65G] as the variant, how does the self-cleavage read?
A: 0.104

Q: Which self-cleavage does the source give for GUCCUCUUUCACGUGCGCGUGAAAGAGAGAAGUGAACAAGAGAAACACACGUUGUGGUAUAUUAUCUGGUA [C38A C65U] here?
A: 0.204

Q: With GUCCUCUUUCACGUGCGCGUGAAAGAGAGAAGUGAACAAAAGAAACACACGUUGUGGUAUAUUACCUGGUA [C38A G40A] as the variant, how does the self-cleavage read?
A: 0.139

Q: Which self-cleavage does the source give for GUCCUCUUUCACGUGCGCGUGAAAGAGAGAAGUGAACAAGAGAAACACACUUUGUGGUAUAUUACCUGGUA [C38A G51U] here?
A: 0.195

Q: For GUCCUCUUUCACGUGCGCGUGAAAGAGAGAAGUGAACAAGAGAAACACACGUUGUUGUAUAUUACCUGGUA [C38A G56U], which self-cleavage is on record?
A: 0.179

Q: With GUCCUCUUUCACGUGCGCGUGAAAGAGAGAAGUGAACAAGAGAAACACACGUUGUGGUAUAUUACCUCGUA [C38A G68C] as the variant, how does the self-cleavage read?
A: 0.137

Q: With GUCCUCUUUCACGUGCGCGUGAAAGAGAGAAGUGAACAAGAGAAACACACGUUGUGGUAUAUUACCUUGUA [C38A G68U] as the variant, how does the self-cleavage read?
A: 0.735

Q: Which self-cleavage does the source give for GUCCUCUUUCACGUGCGCGUGAAAGAGAGAAGUGAACAAGAGAAACACACGUUGUGGUAUAUUACCUGUUA [C38A G69U] here?
A: 0.0684

Q: With GUCCUCUUUCACGUGCGCGUGAAAGAGAGAAGUGAACAAGAGAAACACACGUUGUGGCAUAUUACCUGGUA [C38A U58C] as the variant, how does the self-cleavage read?
A: 0.181

Q: Which self-cleavage does the source give for GUCCUCUUUCACGUGCGCGUGAAAGAGAGAAGUGAACAAGAGAAACACACGUUGUGGUAAAUUACCUGGUA [C38A U60A] here?
A: 0.0853

Q: With GUCCUCUUUCACGUGCGCGUGAAAGAGAGAAGUGAACAAGAGAAACACACGUUGUGGUAUAAUACCUGGUA [C38A U62A] as the variant, how does the self-cleavage read?
A: 0.218
